Measurements published in article PMC9065035, “Structural basis for the synthesis of the core 1 structure by C1GalT1” (Nature Communications, 2022).
Ends that are not written are not given here. * marks the point of attachment. αGalNAc = CC(=O)N[C@@H]1[C@@H](O)[C@@H](O)[C@@H](CO)O[C@@H]1*

B1: APDT*RP glycopeptide (MUC1 tandem repeat epitope with alpha-GalNAc on Thr) (peptide)
peptide: APDT(αGalNAc)RP-NH2
modifications: N-terminus assumed
SMILES: CC(=O)N[C@H]1[C@@H](O[C@H](C)[C@H](NC(=O)[C@H](CC(=O)O)NC(=O)[C@@H]2CCCN2C(=O)[C@H](C)N)C(=O)N[C@@H](CCCNC(=N)N)C(=O)N2CCC[C@H]2C(N)=O)O[C@H](CO)[C@H](O)[C@@H]1O
notes: source: synthetic peptide (Fmoc solid phase, Rink Amide MBHA resin, HPLC)
B2: DmC1GalT1^S73-Q388 (Drosophila melanogaster C1GalT1, residues S73-Q388) (enzyme)
chain: not shown
modifications: N-glycans trimmed with Endoglycosidase-H (expressed with kifunensine)
notes: C1GalT1 (core 1 synthase) of Drosophila melanogaster, residues S73-Q388; Expressed with the honey bee mellitin secretion signal in front (pFastBac1-mellitin-DmC1GalT1-6His); two molecules in the asymmetric unit arranged as a homodimer; also called truncated version of DmC1GalT1; mellitin-DmC1GalT1-6His; source: High Five insect cells (baculovirus), secreted, purified (His-Trap, Endo-H, MBP-Trap, …)
B3: P7 (YADT*GPF) glycopeptide (peptide)
peptide: YADT(αGalNAc)GPF-NH2
notes: designed acceptor glycopeptide; Made on Rink Amide resin, so a C-terminal amide is to be expected; source: synthetic peptide (solid-phase, Rink Amide MBHA resin, HPLC purified)
B4: P4 (PAAT*GPY) glycopeptide (peptide)
peptide: PAAT(αGalNAc)GPY-NH2
notes: as for B3
B5: P4 glycopeptide PAAT*GPY (GalNAc on Thr) (peptide)
peptide: PAAT(αGalNAc)GPY-NH2
notes: Tied to the name P4 by the residues that the text names for P4 (Pro1, Ala2, Ala3, Thr4, Gly5, Tyr7); Made on Rink Amide MBHA resin, so probably a C-terminal amide (surmised); source: synthetic peptide (solid-phase synthesis, HPLC purified)
B6: P7 glycopeptide YADT*GPF (GalNAc on Thr) (peptide)
peptide: YADT(αGalNAc)GPF-NH2
notes: Asp at -1; Tied to the name P7 by the text (Asp at -1; ITC was done with P4 and P7 only besides APDT*RP); Made on Rink Amide MBHA resin, so probably a C-terminal amide (surmised); source: synthetic peptide (solid-phase synthesis, HPLC purified)
B7: DmC1GalT1^S73-Q388 (Drosophila melanogaster C1GalT1, residues S73-Q388) (enzyme)
chain: not shown
modifications: N-glycans trimmed with Endo-H
notes: C1GalT1 of Drosophila melanogaster, residues S73-Q388; Homodimer by SEC and in the crystal; also called truncated version of DmC1GalT1; DmC1GalT1-His

Key:
DmC1GalT1^T43-Q388 R152A = DmC1GalT1^T43-Q388 R152A (Drosophila melanogaster, UniProt Q7K237 43-388, R152A); test: cell-based or functional assay
DmC1GalT1^T43-Q388 Y213A = DmC1GalT1^T43-Q388 Y213A (Drosophila melanogaster, UniProt Q7K237 43-388, Y213A); test: cell-based or functional assay
DmC1GalT1^T43-Q388 Y325A = DmC1GalT1^T43-Q388 Y325A (Drosophila melanogaster, UniProt Q7K237 43-388, Y325A); test: cell-based or functional assay
[1] = biological target: B2; test: crystal structure; 15 mg/mL DmC1GalT1^S73-Q388, 5 mM UDP, 2 mM MnCl2, 5 mM APDT*RP; space group P2_(1); 2.40 Å; conditions: both partners purified
[2] = biological target: the molecule itself; test: as above
[3] = biological target: T1, DmC1GalT1^T43-Q388 (Drosophila melanogaster C1GalT1, residues T43-Q388) (Drosophila melanogaster); test: ITC; in the absence of UDP: 2 mM glycopeptide titrated into 60 µM DmC1GalT1^T43-Q388; 20 °C; 25 mM TRIS pH 7.5, 150 mM NaCl, 1 mM MnCl2; one-site model; duplicate; conditions: both partners purified
T1 construct: N-glycosylated (lower eukaryotes' C1GalT1 are N-glycosylated); The pHLSec vector (AgeI/KpnI) may leave a few vector residues at both ends (surmise); the SEC was done with the S73-Q388 construct; also called core 1/T-synthase; DmC1GalT1-His; source: HEK293, transfected (pHLSec), secreted, purified (His-Trap, Superdex 75)

[4] = biological target: T1, DmC1GalT1^T43-Q388 (Drosophila …); test: ITC; under an excess of UDP: 2 mM (glyco)peptide titrated into DmC1GalT1^T43-Q388 (60 µM for APDT*RP and APDTRP, 50 µM for P4/P7); 20 °C; 25 mM TRIS pH 7.5, 150 mM NaCl, 1 mM UDP, 1 mM MnCl2; one-site model; duplicate; conditions: both partners purified
[5] = biological target: T2, Drosophila melanogaster C1GalT1, residues T43-Q388 (DmC1GalT1^T43-Q388) (Drosophila melanogaster, UniProt Q7K237 43-388); test: ITC; 2 mM glycopeptide titrated into the enzyme (60 uM for APDT*RP, 50 uM for P4/P7); excess of UDP: 25 mM TRIS pH 7.5, 150 mM NaCl, 1 mM UDP, 1 mM MnCl2; 20 °C; one-site model; duplicate; conditions: both partners purified
T2 construct: N-glycosylated when made in HEK293; also called core 1/T-synthase; source: HEK293, transfected (pHLSec), secreted, purified (His-Trap, Superdex 75)

[6] = biological target: T2, Drosophila melanogaster C1GalT1, …; test: ITC; 2 mM glycopeptide titrated into 60 uM enzyme; no UDP: 25 mM TRIS pH 7.5, 150 mM NaCl, 1 mM MnCl2; 20 °C; one-site model; duplicate; conditions: both partners purified
[7] = biological target: the molecule itself; test: crystal structure; DmC1GalT1^S73-Q388 (15 mg/mL) with 5 mM UDP, 2 mM MnCl2 and 5 mM APDT*RP; space group P21; 2.40 Å
[8] = biological target: the molecule itself; test: SEC; size exclusion chromatography of DmC1GalT1^S73-Q388 against protein markers of known molecular weight

B1
glycosyltransferase activity relative to WT (UDP-Glo, 500 nM mutant, 500 μM UDP-Gal, 500 μM APDT*RP) (DmC1GalT1^T43-Q388 R152A): 15 fold decrease | glycosyltransferase activity relative to WT (UDP-Glo, 500 nM mutant, 500 μM UDP-Gal, 500 μM APDT*RP) (DmC1GalT1^T43-Q388 Y213A): 25 fold decrease | glycosyltransferase activity relative to WT (UDP-Glo, 500 nM mutant, 500 μM UDP-Gal, 500 μM APDT*RP) (DmC1GalT1^T43-Q388 Y325A): 25 fold decrease | binding result [1]: binds

B2
stoichiometry N [2]: 2

B3
Kd [3]: 37.1 µM | stoichiometry N [3]: 0.65 | Kd [4]: 60 µM | stoichiometry N [4]: 1.5

B4
Kd [3]: 41 µM | stoichiometry N [3]: 0.98 | Kd [4]: 60.4 µM | stoichiometry N [4]: 0.88

B5
Kd [5]: 60.3 µM | Kd [6]: 41 µM

B6
Kd [5]: 60 µM | Kd [6]: 37.1 µM

B7
stoichiometry N [7]: 2 | stoichiometry N [8]: 2
